Results as given in publication PMC5131779.

Tests used:
G5N R335E = G5N R335E (Homo sapiens, UniProt Q8TEQ6 1-726, R335E); assay: FP
G5N Y383F = G5N Y383F (Homo sapiens, UniProt Q8TEQ6 1-726, Y383F); assay: FP
G5N M403E = G5N M403E (Homo sapiens, UniProt Q8TEQ6 1-726, M403E); assay: FP
G5N WT [1] = target: T1, G5N WT (Homo sapiens, UniProt Q8TEQ6 1-726); assay: FP
G5N R33A = G5N R33A (Homo sapiens, UniProt Q8TEQ6 1-726, R33A); assay: FP
G5N N13A = G5N N13A (Homo sapiens, UniProt Q8TEQ6 1-726, N13A); assay: FP
Chain of G5N N13A (Q8TEQ6 1-726 N13A): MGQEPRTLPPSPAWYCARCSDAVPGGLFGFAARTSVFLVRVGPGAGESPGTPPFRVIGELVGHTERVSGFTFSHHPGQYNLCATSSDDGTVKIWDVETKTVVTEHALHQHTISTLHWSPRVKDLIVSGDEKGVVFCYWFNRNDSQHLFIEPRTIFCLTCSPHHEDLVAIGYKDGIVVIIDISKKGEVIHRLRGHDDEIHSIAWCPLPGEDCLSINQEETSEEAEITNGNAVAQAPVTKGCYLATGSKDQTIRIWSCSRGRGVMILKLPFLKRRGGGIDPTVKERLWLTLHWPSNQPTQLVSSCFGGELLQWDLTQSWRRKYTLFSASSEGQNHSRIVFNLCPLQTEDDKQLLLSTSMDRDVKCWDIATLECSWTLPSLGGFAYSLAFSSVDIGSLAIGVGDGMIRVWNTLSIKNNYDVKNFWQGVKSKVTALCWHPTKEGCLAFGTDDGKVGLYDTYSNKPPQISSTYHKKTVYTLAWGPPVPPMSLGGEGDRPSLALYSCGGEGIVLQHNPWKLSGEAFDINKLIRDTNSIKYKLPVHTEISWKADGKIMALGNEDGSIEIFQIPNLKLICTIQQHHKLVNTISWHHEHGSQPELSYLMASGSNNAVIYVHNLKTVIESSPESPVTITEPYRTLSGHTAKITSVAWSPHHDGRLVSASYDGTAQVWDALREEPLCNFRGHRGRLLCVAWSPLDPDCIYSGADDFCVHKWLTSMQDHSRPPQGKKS

G5N R359A = G5N R359A (Homo sapiens, UniProt Q8TEQ6 1-726, R359A); assay: FP
Chain of G5N R359A (Q8TEQ6 1-726 R359A): as the sequence (Q8TEQ6 1-726 N13A) above, with A13N, R359A counted along it

G5N M357A = G5N M357A (Homo sapiens, UniProt Q8TEQ6 1-726, M357A); assay: FP
Chain of G5N M357A (Q8TEQ6 1-726 M357A): as the sequence (Q8TEQ6 1-726 N13A) above, with A13N, M357A counted along it

G5N WT [2] = target: T1, G5N WT; assay: EMSA
G5N WT [3] = target: T1, G5N WT; assay: crystal structure
G5N WT [4] = target: T1, G5N WT; assay: EMSA; remark: listed apart in the source
G5N Y474A = G5N Y474A (Homo sapiens, UniProt Q8TEQ6 1-726, Y474A); assay: EMSA
Chain of G5N Y474A (Q8TEQ6 1-726 Y474A): as the sequence (Q8TEQ6 1-726 N13A) above, with A13N, Y474A counted along it

T1 sequence (Q8TEQ6 1-726): as the sequence (Q8TEQ6 1-726 N13A) above, with A13N counted along it
Chain of G5N M403E (Q8TEQ6 1-726 M403E): as the sequence (Q8TEQ6 1-726 N13A) above, with A13N, M403E counted along it
Chain of G5N R335E (Q8TEQ6 1-726 R335E): as the sequence (Q8TEQ6 1-726 N13A) above, with A13N, R335E counted along it
Chain of G5N Y383F (Q8TEQ6 1-726 Y383F): as the sequence (Q8TEQ6 1-726 N13A) above, with A13N, Y383F counted along it
Chain of G5N R33A (Q8TEQ6 1-726 R33A): as the sequence (Q8TEQ6 1-726 N13A) above, with A13N, R33A counted along it

For GCAAUUUUUGACA (ssRNA) [U4 13-mer, FITC], the Kd (G5N R335E) was 96.7 µM, the Kd (G5N Y383F) was 3.8 µM and the Kd (G5N M403E) was 2 µM. For the same binder, the Kd (G5N WT [1]) was 0.24 µM, the Kd (G5N R33A) was 3.3 µM and the Kd (G5N N13A) was 1.4 µM. The Kd (G5N R359A) was 46.6 µM and the Kd (G5N M357A) was 8.1 µM.

CAAUUUUUGAC (ssRNA) [U4 11-mer]: binds (G5N WT [2]).

AUUUUUG (ssRNA) [U4 7-mer (bare Sm site)]: binds (G5N WT [3]).

AAUUUUUG (ssRNA) [U4 8-mer]: binds (G5N WT [4]).

CAAUUUUUG (ssRNA) [U4 9-mer (soak)]: binds (G5N WT [3]).

GCAAUUUUUGACA (ssRNA) [U4 13-mer]: binds (G5N Y474A).
